Assay results reported in patent US20170291954A1.

What was measured:
GPC3-GST fusion protein [1] = test: ELISA, GPC3-GST fusion protein as antigen at 0.5 ug/ml
GPC3-GST fusion protein [2] = test: ELISA, GPC3-GST fusion protein as antigen at 1 ug/ml

Sequence of GPC3-GST fusion protein (P51654 368-548): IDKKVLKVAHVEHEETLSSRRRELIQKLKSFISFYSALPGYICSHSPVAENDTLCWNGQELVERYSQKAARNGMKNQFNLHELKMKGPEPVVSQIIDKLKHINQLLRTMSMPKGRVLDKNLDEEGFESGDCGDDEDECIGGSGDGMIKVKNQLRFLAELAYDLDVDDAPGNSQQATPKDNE

B1: 4E5 scFv, secreted from yeast as a fusion protein and purified on nickel-HIS beads (scFv, part only; not given: linker and fusion partner, not shown: large carriers)
scFv, part: QVQLQQSGAELVRPGASVKLSCKASGYTFNDYEMHWVKQTPVHGLKWIGALEPKTGDTAYSQKFKGKATLTADKSSSTAYMELRSLTSEDSAVYYCTSCYYYTYSGQGTLVTVSADVVMTQTPLSLPVSLGDQASISCRSSQSLVHSNGNTYLHWYLQKPGQSPKLLIYKVSNRFSGVPDRFSGSGSGTDFTLKISRVEAEDLGVYFCSQNTPVPPKFGSGTKLEIK
EC50 (GPC3-GST fusion protein [1]): 52 nM
EC50 (GPC3-GST fusion protein [2]): 43.1 nM
